Reference: US11767515B2, “Colonic organoids and methods of making and using same” (Children's Hospital Medical Center, priority 2016, dated 2023)

Columns and labels:
[1] = tested on: human gut tube spheroids; assay: HOX/MSX2 gene expression in patterned gut tube spheroids after 3 days (RNA-seq, QPCR); assay type: cell-based
Protocol: (§1) Patterning midgut/hingut spheroids into HIOs and HCOs. Spheroids were collected from 24 well plate and plated in Matrigel (BD). To generate proximal HIOs, spheroids were overlayed with intestinal growth medium (Advanced DMEM/F-12, N2, B27, 15 mM HEPES, 2 mM L-glutamine, penicillin-streptomycin) supplemented with 100 ng/mL EGF (R&D) alone, or 100 ng/mL EGF with 100 ng/ml NOGGIN (R&D). To generate HCOs, spheroids were overlayed with 100 ng/mL EGF plus 100 ng/mL BMP (R&D). For SHH experiments, 1 pM SAG (Tocris), 5 pM SAG or 2.5 pM Cyclopamine (Tocris) were added to control media for initial 3 days after which RNA samples were collected. Media was changed at 3 days with only EGF being maintained in the media for all patterning conditions. Media was then changed twice weekly thereafter. HIOs and HCOs were replated in fresh Matrigel every 14 days.
(§2) RNA isolation and QPCR. RNA was extracted using Nucleospin® RNA extraction kit (Macharey-Nagel) and reverse transcribed into cDNA using Superscript VILO (Invitrogen) according to manufacturer's protocols. QPCR primers were designed using the qPrimerDepot webased tool (primerdepot.nci.nih.gov). QPCR was performed using Quantitect SYBR® Green PCR kit (Qiagen) and a QuantStudio™ 6 Flex Real-Time PCR System (Applied Biosystems).

[2] = tested on: BMP signaling; assay: BMP inhibition in Xenopus tropicalis embryos; assay type: in vivo; conditions: DMH-1 20 pM vs DMSO
Protocol: BMP inhibition in frog and mouse embryos. Xenopus tropicalis embryo culture and small molecule treatments were performed as previously described (Rankin et al., 2012; Rankin et al., 2015). DMH-1 (Sigma D8946) was dissolved in DMSO, and used at final concentration of 20 pM; equal concentrations of DMSO vehicle were used on sibling embryos. Inhibitor treatment experiments were repeated twice with similar effects on the markers analyzed. For Xenopus in-situ hybridization analyses, DIG-labeled antisense RNA probes were generated using linearized full-length cDNA plasmid templates (X. tropicalis satb2 was purchased from ATCC, clone 7720194; HinDIII, T7 for probe; X. laevis satb2 was a gift for Tyler Square and Daniel Medeiros, University of Colorado-Boulder; Xbal, Sp6 for probe). Complete details describing probe synthesis and the in-situ hybridization protocol are available on Xenbase (hftp://wiki.xenbase.orq/xenwiki/index.php/Protocols).

[3] = tested on: BMP signaling; assay: BMP inhibition in mouse whole embryo culture; assay type: in vivo
Protocol: For mouse whole embryo cultures, e7.5 embryos were cultured in a 1:1 mixture of Ham's F12 medium and whole embryo culture rat serum (Harlan Labs) containing N-2 Supplement (Invitrogen). Vessels were placed on a roller culture apparatus (BTC Engineering, Cambridge, UK) and maintained for 2 days at 37° C. and gassed with 20% 02 and 5% CO2. BMP signaling was inhibited by treatment with 5 pM DMH-1, with DMSO serving as a vehicle control.
(§3) Tissue processing, immunofluorescence and microscopy. Tissues were fixed for 1-3 hours in 4% paraformaldehyde (PFA) on ice depending on the size of the tissue. Organoids and transplant engraftments were frozen in OCT. OCT sections were blocked using donkey serum (5% serum in 1×PBS plus 0.5% Triton-X) for 30 min and incubated with primary antibody overnight at 4° C. Slides were then washed 3× with 1×PBS plus 0.5% Triton-X and incubated in secondary antibody with DAPI in blocking buffer for 2 h at room temperature. See Table 2 for a list of antibodies and respective dilutions. Slides were then washed 2× with 1×PBS plus 0.5% Triton-X followed by a final wash in 1×PBS. Coverslips were then mounted using Fluoromount-G® (SouthernBiotech). Images were captured on a Nikon A1 confocal microscope and analyzed using Imaris Imaging Software (Bitplane). For whole-mount staining, tissues were processed similarly as above and then cleared in Murray's solution. Imaging was performed with a Nikon A1 confocal microscope.
(§4) Quantification of immunofluorescence images. Image quantitation of whole embryos was done by splitting images into separated channels and then measuring pixel area using ImageJ (NIH). Pixel area was determined for each channel, the ratio between channels was determined and the ratio for control treated embryos was represented as 100. Quantitation of in vitro and in vivo grown organoids was done on sections from which images were captured as explained above. The number of CDX2, GATA4 and SATB2 positive nuclei were quantified using the spot function in [marls following calibration with human biopsy samples.

[4] = tested on: human gut tube spheroids; assay: Patterning of human gut tube spheroids (pSMAD1/5/8 and SATB2 staining); assay type: cell-based; conditions: spheroids treated for 12 hours; 100 ng/mL
Protocol: as §1, with “Media was then changed twice weekly thereafter. HIOs and HCOs were replated in fresh Matrigel every 14 days.” left out
Tissue processing, immunofluorescence and microscopy. […] Images were captured on a Nikon A1 confocal microscope and analyzed using Imaris Imaging Software (Bitplane). […]
as §4, with “The number of CDX2, GATA4 and SATB2 positive nuclei were quantified using the spot function in [marls following calibration with human biopsy samples.” left out

[5] = tested on: transplanted organoids; assay: Transplantation of patterned organoids under the mouse kidney capsule; assay type: in vivo
Protocol: as §3

[6] = tested on: human intestinal organoids; assay: Regional markers in organoids after prolonged in vitro culture (IF, QPCR); assay type: cell-based
Protocol: as §1, §3, §4, §2

[7] = tested on: organoid mesenchyme; assay: Patterning markers in isolated organoid mesenchyme cultures (QPCR); assay type: cell-based, human; conditions: mesenchymal cell cultures expanded for 2-3 weeks
Protocol: as §2

[8] = 28-day old organoids after initial 3 day treatment

For `CNC1CCC(N(Cc2cccc(-c3ccncc3)c2)C(=O)c2sc3ccccc3c2Cl)CC1` (stereo not shown) [SAG], the “SAG-mediated activation of MSX2, HOXA13, HOXD13 relative to activation mediated by BMP2” value ([1]; 3 days) was “only a fraction” and the “activation of MSX2, HOXA13 and HOXD13 (QPCR)” value ([1]; SAG added to control media for initial 3 days) was “concentration dependent activation”.

In the case of `CC(C)Oc1ccc(-c2cnc3c(-c4ccnc5ccccc45)cnn3c2)cc1` [DMH-1], the “Satb2 expression in the hindgut and brachial arches” value [2] is reported as “loss of Satb2 expression”, the “Satb2 expression in the first brachial arch” value ([3]; DMH-1 treated mouse embryos) is reported as “lost” and the “Satb2 expression in the posterior gut tube” value ([3]; e7.5 mouse embryos, 48 hours of DMH-1 treatment) is reported as “loss of Satb2 expression”. For the same molecule, the pSmad1/5/8 levels ([3]; e7.5 mouse embryos, 48 hours of DMH-1 treatment, 5 µM DMH-1 vs DMSO) was “significant reduction” and the “TGFI3 signaling as measured by pSmad2/3 levels” value ([3]; mouse embryos cultured in DMSO or DMH-1) was “no impact”.

B1: NOGGIN: BMP inhibitor NOGGIN (R&D), 100 ng/ml, used to generate proximal HIOs (protein, UniProt Q13253 28-232, looked up)
Noggin: QHYLHIRPAPSDNLPLVDLIEHPDPIFDPKEKDLNETLLRSLLGGHYDPGFMATSPPEDRPGGGGGAAGGAEDLAELDQLLRQRPSGAMPSEIKGLEFSEGLAQGKKQRLSKKLRRKLQMWLWSQTFCPVLYAWNDLGSRFWPRYVKVGSCFSKRSCSVPEGMVCKPSKSVHLTVLRWRCQRRGGQRCGWIPIQYPIISECKCSC
For B1, the “BMP signaling levels by nuclear pSMAD1/5/8 staining” value [4] was “abolished this staining”, the “efficiency of organoid engraftment” value ([5]; compared with HCOs) was “more efficient” and the “epithelial morphology of transplanted organoids” value ([5]; under the mouse kidney capsule for 6-10 weeks) was “formed well-defined crypts and tall villi”. For the same molecule, the “SATB2 expression after re-patterning with NOGGIN” value ([6]; 3-day BMP treated spheroids shifted to NOGGIN-containing media for 3 days) was “a subset of organoids lost SATB2 expression”, the “Levels of ONECUT1 (marker of proximal small intestine)” value [6, 8] was “highest” and the “SATB2 in the epithelium” value [6, 8] was “absent”. For the same molecule, the “MUC5B staining (colon-specific goblet cell marker)” value ([6]; 28-day organoids) was “absent”, the “goblet cells by intracellular MUC2 staining” value ([6]; at 28 days) was “rare intracellular MUC2 staining” and the “HOXD3 expression / proximal identity of mesenchyme” value [7] was “stable proximal identity”.
